Experimental findings from paper PMC7584627 are described below.

The target of the experiment is LuS-N71-SpyTag (Aquifex aeolicus). Description: SDS-PAGE of the covalent conjugate, band intensities.

With SARS-CoV-2 spike-SpyCatcher, the percent of nanoparticle subunit conjugated turned out to be 91%.
